Measurements: patent US20250235501A1, “Methods and Compositions for Treating or Preventing Neurological Injury or Neurological Disorders” (University of Connecticut, priority 2024, published 2025)

Biological target: T1, TRPM2 interaction with GluN2a (Rattus norvegicus, UniProt Q00959)
T1 construct: TRPM2 plasmid a gift 17928; 17924; 17925; host or cells: HEK293T
Assay: Co-IP of TRPM2 with GluN2a in co-transfected HEK293T cells
Format: cell-based, human
Details: 10 μM peptide overnight; IP anti-GluN2a, WB anti-Flag
Procedure: FIGS. 5A and 5B show the effects of TAT-EE3 on interaction of TRPM2 and NMDARs. Co-IP tests of NMDARs with WT or EE3 domain mutants of TRPM2 (Flag-tagged) in co-transfected HEK293T cells. WT TRPM2 groups were treated with 10 μM TAT-SC or TAT-EE3 overnight. Lysates were IP's with anti-GluN2a (FIG. 5A) or anti-GluN2b (FIG. 5B), and probed by WBs with anti-Flag. IgG was used as control for IP. Similar to the mutants TRPM2-ΔEE3 and TRPM2-EQE, TAT-EE3 disrupted TRPM2 interaction with GluN2a and GluN2b.
were ordered from GenScript Biotech, and dissolved in PBS to make a stock concentration at 10 mM. HEK-293T cells or isolated neurons were treated with TAT-SC or TAT-EE3 at a concentration of 10 μM for at least 8 h prior to use. Mice were injected with TAT-SC or TAT-EE3 intraperitoneally (ip) at a dose of 100 nmol/kg. […]
NP-40 lysis buffer ([…], 150 mM NaCl, 1 mM EDTA, 50 mM Tris, pH=8.0) containing proteinase inhibitors (Sigma-Aldrich, 539131-10VL) and phosphatase inhibitors (Thermal Fisher Scientific, 78428) was used to lyse both cultured cells and frozen brain tissue. […] Protein concentration was measured using Pierce™ Rapid Gold BCA Protein Assay Kit (Thermal Fisher Scientific, A53225). […] Then samples were ready for western blotting analysis.

T1 sequence (Q00959 23-1464, other chains not shown): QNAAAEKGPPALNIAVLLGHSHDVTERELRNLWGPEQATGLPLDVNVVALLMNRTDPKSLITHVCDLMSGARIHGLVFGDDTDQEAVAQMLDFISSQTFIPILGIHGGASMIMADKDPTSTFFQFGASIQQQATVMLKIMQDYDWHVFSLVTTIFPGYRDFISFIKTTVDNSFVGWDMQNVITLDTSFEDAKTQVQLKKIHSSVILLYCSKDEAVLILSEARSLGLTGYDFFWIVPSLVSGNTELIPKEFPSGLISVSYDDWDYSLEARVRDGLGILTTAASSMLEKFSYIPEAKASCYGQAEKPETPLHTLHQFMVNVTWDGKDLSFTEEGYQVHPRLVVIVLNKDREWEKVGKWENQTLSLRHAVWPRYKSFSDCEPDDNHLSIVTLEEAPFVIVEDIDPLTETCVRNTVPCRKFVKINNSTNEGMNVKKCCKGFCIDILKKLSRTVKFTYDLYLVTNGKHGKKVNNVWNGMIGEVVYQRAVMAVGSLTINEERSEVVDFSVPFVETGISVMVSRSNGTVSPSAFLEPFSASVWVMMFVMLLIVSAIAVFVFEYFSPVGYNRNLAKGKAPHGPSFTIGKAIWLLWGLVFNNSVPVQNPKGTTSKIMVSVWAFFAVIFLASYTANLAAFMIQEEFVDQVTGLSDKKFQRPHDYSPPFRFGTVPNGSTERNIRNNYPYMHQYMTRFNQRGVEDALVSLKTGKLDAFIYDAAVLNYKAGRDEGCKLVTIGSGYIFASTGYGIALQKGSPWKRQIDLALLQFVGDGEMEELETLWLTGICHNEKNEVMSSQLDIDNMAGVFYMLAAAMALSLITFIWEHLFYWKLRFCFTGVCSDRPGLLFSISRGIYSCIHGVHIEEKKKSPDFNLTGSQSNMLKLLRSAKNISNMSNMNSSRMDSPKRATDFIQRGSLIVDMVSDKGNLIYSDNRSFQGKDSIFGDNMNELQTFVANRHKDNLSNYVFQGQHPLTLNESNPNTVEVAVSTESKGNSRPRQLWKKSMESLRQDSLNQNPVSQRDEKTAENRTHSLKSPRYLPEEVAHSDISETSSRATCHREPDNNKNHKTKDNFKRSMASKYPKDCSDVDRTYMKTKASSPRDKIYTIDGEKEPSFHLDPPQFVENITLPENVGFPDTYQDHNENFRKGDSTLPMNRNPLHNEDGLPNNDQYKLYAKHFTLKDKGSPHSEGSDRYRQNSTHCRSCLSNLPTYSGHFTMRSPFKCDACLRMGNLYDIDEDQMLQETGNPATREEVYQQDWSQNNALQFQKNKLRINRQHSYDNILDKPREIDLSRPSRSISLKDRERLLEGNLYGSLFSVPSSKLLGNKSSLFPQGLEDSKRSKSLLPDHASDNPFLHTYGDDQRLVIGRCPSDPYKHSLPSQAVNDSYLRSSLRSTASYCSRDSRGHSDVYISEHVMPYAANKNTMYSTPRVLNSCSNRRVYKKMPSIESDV

## TAT-EE3: membrane permeable disrupting peptide, sequence YGRKKRRQRRREEDTDSSEEMLALAEE (SEQ ID NO: 4)
  interaction of TRPM2 with GluN2a (co-IP): completely disrupted
